From article PMC5267388
Values joined by “and” are separate entries in the source; they are usually repeats but may differ in a detail not shown here. Identical values can stand only once.

Biological target: PSD95, endogenous, from mouse brain lysate (mouse (endogenous in mouse brain)) (UniProt Q62108)
Assay: co-IP

Sequence of PSD95, endogenous, from mouse brain lysate (mouse (endogenous in mouse brain)) (Q62108 whole entry): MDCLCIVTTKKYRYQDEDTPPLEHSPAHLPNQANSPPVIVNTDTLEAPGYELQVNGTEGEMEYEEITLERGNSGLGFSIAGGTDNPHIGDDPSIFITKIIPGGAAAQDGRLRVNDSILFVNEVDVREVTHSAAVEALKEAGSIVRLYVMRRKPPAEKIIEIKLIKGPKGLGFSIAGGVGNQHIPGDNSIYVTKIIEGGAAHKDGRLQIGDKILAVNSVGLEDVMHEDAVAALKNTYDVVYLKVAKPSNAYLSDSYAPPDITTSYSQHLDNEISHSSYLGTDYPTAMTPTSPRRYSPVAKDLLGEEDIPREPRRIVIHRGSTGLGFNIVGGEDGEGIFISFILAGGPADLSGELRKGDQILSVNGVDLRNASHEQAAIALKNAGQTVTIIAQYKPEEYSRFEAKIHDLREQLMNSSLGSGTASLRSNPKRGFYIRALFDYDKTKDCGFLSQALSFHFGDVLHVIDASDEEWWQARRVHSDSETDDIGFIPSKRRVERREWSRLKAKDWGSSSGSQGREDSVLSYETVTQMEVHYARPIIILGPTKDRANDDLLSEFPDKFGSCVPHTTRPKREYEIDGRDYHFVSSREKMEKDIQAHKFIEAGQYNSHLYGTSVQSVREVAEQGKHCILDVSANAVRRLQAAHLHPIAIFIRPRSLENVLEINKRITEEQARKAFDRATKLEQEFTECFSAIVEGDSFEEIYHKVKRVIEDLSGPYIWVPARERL
Sequence of Phosphorylated Sept7 (pT426), endogenous, from mouse brain lysate (O55131 2-436): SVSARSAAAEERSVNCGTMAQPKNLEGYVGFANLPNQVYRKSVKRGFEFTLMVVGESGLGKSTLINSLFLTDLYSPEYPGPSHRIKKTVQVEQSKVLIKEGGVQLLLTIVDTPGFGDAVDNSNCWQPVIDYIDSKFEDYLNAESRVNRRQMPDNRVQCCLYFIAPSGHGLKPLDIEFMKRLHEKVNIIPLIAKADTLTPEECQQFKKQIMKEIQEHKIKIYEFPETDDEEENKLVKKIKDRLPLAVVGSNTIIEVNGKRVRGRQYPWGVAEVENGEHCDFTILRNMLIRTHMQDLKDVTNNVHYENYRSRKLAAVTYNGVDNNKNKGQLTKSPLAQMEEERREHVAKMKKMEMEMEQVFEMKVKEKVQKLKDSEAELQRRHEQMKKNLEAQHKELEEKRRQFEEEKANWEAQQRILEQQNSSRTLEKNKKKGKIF

Phosphorylated Sept7 (pT426), endogenous, from mouse brain lysate (from UniProt O55131 1-436) (natural protein)
percent of endogenous Sept7 pulled down with PSD95: 10% and 15%
